Measurements taken from patent publication US20260217833A1 (APTEVO RESEARCH AND DEVELOPMENT, published 2026).
Numbering of substitutions follows the chain as printed.

B1: CD4001079 (bispecific antibody)
Fc-Knob x CD40_2H7: EPKSSDKTHTCPPCPAPPAAAPSVFLFPPKPKDTLMISRTPEVTCVVVDVSHEDPEVKFNWYVDGVEVHNAKTKPREEQYNSTYRVVSVLTVLHQDWLNGKEYKCAVSNKALPAPIEKTISKAKGQPREPQVYTLPPSRDELTKNQVSLWCLVKGFYPSDIAVEWESNGQPENNYKTTPPVLDSDGSFFLYSKLTVDKSRWQQGNVFSCSVMHEALHNHYTQKSLSLSPGGGGSPSDIVMTQSHKFMSTSVGDRVSITCKASQDVNTAVAWYQQKPGQSPKLLIYSASYRYTGVPDRFTGSGSGTDFTFTISSVQAEDLAVYYCQQHYSTPWTFGGGTKLEIKGGGGSGGGGSGGGGSGGGGSQVQLQQSGAELAKPGASVKMSCKASGYAFTTYWMHWVKQRPGQGLEWIGYINPTTGYTDYNQKFKDKATLTADKSSSTAYMQLSSLTSEDSAVYYCARWGLPPFAYWGQGTLVTVSA
PDL_5F9 x Fc-Hole x CD40_2H7: EVQLVESGGGLVKPGGSLRLSCAASGFTFSDYGMAWVRQAPGKGLEWVAFITSLAYIIYYADSVKGRFTISRDNAKNSLYLQMNSLRAEDTAVYYCARNYGSSPYYFDYWGQGTLVTVSSGGGGSGGGGSGGGGSGGGGSDIQMTQSPSSLSASVGDRVTITCRASQDINKFLSWYQQKPGKAPKLLIHYTSSLQPGVPSRFSGSGSGTDFTLTISSLQPEDFATYYCLQYDNLYTFGQGTKLEIKEPKSSDKTHTCPPCPAPPAAAPSVFLFPPKPKDTLMISRTPEVTCVVVDVSHEDPEVKFNWYVDGVEVHNAKTKPREEQYNSTYRVVSVLTVLHQDWLNGKEYKCAVSNKALPAPIEKTISKAKGQPREPQVYTLPPSRDELTKNQVSLSCAVKGFYPSDIAVEWESNGQPENNYKTTPPVLDSDGSFFLVSKLTVDKSRWQQGNVFSCSVMHEALHNRFTQKSLSLSPGGGGSPSDIVMTQSHKFMSTSVGDRVSITCKASQDVNTAVAWYQQKPGQSPKLLIYSASYRYTGVPDRFTGSGSGTDFTFTISSVQAEDLAVYYCQQHYSTPWTFGGGTKLEIKGGGGSGGGGSGGGGSGGGGSQVQLQQSGAELAKPGASVKMSCKASGYAFTTYWMHWVKQRPGQGLEWIGYINPTTGYTDYNQKFKDKATLTADKSSSTAYMQLSSLTSEDSAVYYCARWGLPPFAYWGQGTLVTVSA
B2: CD4001047 (bispecific antibody)
scFv-Fc-scFv chain: DIVMTQSHKFMSTSVGDRVSITCKASQDVNTAVAWYQQKPGQSPKLLIYSASYRYTGVPDRFTGSGSGTDFTFTISSVQAEDLAVYYCQQHYSTPWTFGGGTKLEIKGGGGSGGGGSGGGGSGGGGSQVQLQQSGAELAKPGASVKMSCKASGYAFTTYWMHWVKQRPGQGLEWIGYINPTTGYTDYNQKFKDKATLTADKSSSTAYMQLSSLTSEDSAVYYCARWGLPPFAYWGQGTLVTVSAEPKSSDKTHTCPPCPAPPAAAPSVFLFPPKPKDTLMISRTPEVTCVVVDVSHEDPEVKFNWYVDGVEVHNAKTKPREEQYNSTYRVVSVLTVLHQDWLNGKEYKCAVSNKALPAPIEKTISKAKGQPREPQVYTLPPSRDELTKNQVSLTCLVKGFYPSDIAVEWESNGQPENNYKTTPPVLDSDGSFFLYSKLTVDKSRWQQGNVFSCSVMHEALHNHYTQKSLSLSPGGGGSPSEVQLVESGGGLVKPGGSLRLSCAASGFTFSDYGMAWVRQAPGKGLEWVAFITSLAYIIYYADSVKGRFTISRDNAKNSLYLQMNSLRAEDTAVYYCARNYGSSPYYFDYWGQGTLVTVSSGGGGSGGGGSGGGGSGGGGSDIQMTQSPSSLSASVGDRVTITCRASQDINKFLSWYQQKPGKAPKLLIHYTSSLQPGVPSRFSGSGSGTDFTLTISSLQPEDFATYYCLQYDNLYTFGQGTKLEIK
notes: also called CD40_2H7 x hFc x PDL_5F9
B3: CD4001070 (bispecific antibody)
Fc-Knob x PDL_5F9: EPKSSDKTHTCPPCPAPPAAAPSVFLFPPKPKDTLMISRTPEVTCVVVDVSHEDPEVKFNWYVDGVEVHNAKTKPREEQYNSTYRVVSVLTVLHQDWLNGKEYKCAVSNKALPAPIEKTISKAKGQPREPQVYTLPPSRDELTKNQVSLWCLVKGFYPSDIAVEWESNGQPENNYKTTPPVLDSDGSFFLYSKLTVDKSRWQQGNVFSCSVMHEALHNHYTQKSLSLSPGGGGSPSEVQLVESGGGLVKPGGSLRLSCAASGFTFSDYGMAWVRQAPGKGLEWVAFITSLAYIIYYADSVKGRFTISRDNAKNSLYLQMNSLRAEDTAVYYCARNYGSSPYYFDYWGQGTLVTVSSGGGGSGGGGSGGGGSGGGGSDIQMTQSPSSLSASVGDRVTITCRASQDINKFLSWYQQKPGKAPKLLIHYTSSLQPGVPSRFSGSGSGTDFTLTISSLQPEDFATYYCLQYDNLYTFGQGTKLEIK
CD40_2H7 x Fc-Hole x PDL_5F9: B2 scFv-Fc-scFv chain with T394S, L396A, Y435V, H463R, Y464F
B4: CD4001184 (Fc fusion)
scFv: DIQMTQSPSSVSASVGDRVTITCRSSQSLLFSVNQKNYLAWYQQKPGKAPKLLIYWASTRESGVPDRFSGSGSGTDFTLTISSLQPEDFATYYCQHYYSYPWTFGQGTKVEIKGGGGSGGGGSGGGGSGGGGSQVQLVQSGAEVKKPGSSVKVSCKASGYTFSTSWIEWIRQAPGQGLEWIGSILPGSGSTNYNEKFKGKATFTADTSTSTAYMELSSLRSEDTAVYYCARGDDGSYVRWYFDHWGQGTLVTVSS
notes: humanized 1D5 variant; not shown: wild-type human IgG1 Fc and the Fc-to-scFv linker
B5: CD4001187 (Fc fusion)
scFv: B4 scFv with N194A
notes: humanized 1D5 variant; not shown: wild-type human IgG1 Fc and the Fc-scFv linker
B6: CD4001205 (Fc fusion)
scFv: B4 scFv with E168S, I170V, I181M, S183G, A201V, F203I, T207E
notes: humanized 1D5 variant; not shown: wildtype human IgG1 Fc and its linker to the scFv
B7: CD4001199 (Fc fusion)
scFv: B4 scFv with I181M, E195Q, K198Q, K200R, A201V, F203I
notes: as for B6
B8: CD4001183 (Fc fusion)
scFv: B4 scFv with R60L, D66S, S158T
notes: as for B4
B9: CD4001185 (Fc fusion)
scFv: B4 scFv with E168S, I170V, S183G
notes: as for B4
B10: CD4001207 (Fc fusion)
scFv: B4 scFv with I181M, N194A, A201V, F203I, T207E
notes: as for B6
B11: CD4001196 (Fc fusion)
scFv: B4 scFv with E168S, I170V, S183G, E195Q, K198Q, K200R
notes: as for B5
B12: CD4001206 (Fc fusion)
scFv: B4 scFv with I181M, N194A, E195Q, K198Q, K200R, A201V, F203I
notes: as for B6
B13: CD4001203 (Fc fusion)
scFv: B4 scFv with E168S, I170V, I181M, S183G, N194A, A201V, F203I
notes: as for B6
B14: CD4001186 (Fc fusion)
scFv: B4 scFv with I181M, A201V, F203I
notes: as for B4
B15: CD4001182 (Fc fusion)
scFv: B4 scFv with T59S, E61Q, S158T
notes: as for B4
B16: CD4001192 (Fc fusion)
scFv: B4 scFv with S25A, R60L, D66S, S158T
notes: as for B5
B17: CD4001193 (Fc fusion)
scFv: B4 scFv with S25A, T59S, R60L, E61Q, D66S, S158T
notes: as for B5
B18: CD4001201 (Fc fusion)
scFv: B4 scFv with N194A, T207E
notes: as for B6
B19: CD4001194 (Fc fusion)
scFv: B4 scFv with E168S, I170V, I181M, S183G, A201V, F203I
notes: as for B5
B20: CD4001190 (Fc fusion)
scFv: B4 scFv with S25A, T59S, E61Q, S158T
notes: as for B5
B21: CD4001197 (Fc fusion)
scFv: B4 scFv with E168S, I170V, S183G, T207E
notes: as for B6
B22: CD4001204 (Fc fusion)
scFv: B4 scFv with E168S, I170V, I181M, S183G, E195Q, K198Q, K200R, A201V, F203I
notes: as for B6
B23: CD4001195 (Fc fusion)
scFv: B4 scFv with E168S, I170V, S183G, N194A
notes: as for B5
B24: CD4001181 (Fc fusion)
scFv: B4 scFv with S25A, S158T
notes: as for B4
B25: CD4001191 (Fc fusion)
scFv: B4 scFv with T59S, R60L, E61Q, D66S, S158T
notes: as for B5

biological target: T1, Human PD-L1 full-length (human, UniProt Q9NZQ7 19-290); assay: flow cytometry, CHOK1SV/human PD-L1 cells
T1 construct: also called PDL01021; CHOK1SV/huPDL1
T1 sequence (Q9NZQ7 19-290): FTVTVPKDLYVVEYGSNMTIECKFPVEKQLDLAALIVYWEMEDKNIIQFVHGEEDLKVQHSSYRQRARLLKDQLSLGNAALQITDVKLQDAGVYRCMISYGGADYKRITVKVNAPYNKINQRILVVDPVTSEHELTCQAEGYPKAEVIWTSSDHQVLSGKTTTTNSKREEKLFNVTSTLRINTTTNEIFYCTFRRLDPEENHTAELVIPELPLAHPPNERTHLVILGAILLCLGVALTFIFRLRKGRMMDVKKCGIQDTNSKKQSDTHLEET

| binding result | Binder |
| --- | --- |
| binds | B1 |
| binds | B2 |
| binds | B3 |

biological target: T2, human CD40 full-length (human, UniProt P25942 21-277); assay: flow cytometry, CHOK1SV/human CD40 cells
T2 construct: Also used for CD40 of Daudi cells, of CD40-expressing HEK293 cells and of the BPS CD40/NFkB HEK293 reporter cells where the row says so; also called CD4001012; CHOK1SV/CD40
T2 sequence (P25942 21-277): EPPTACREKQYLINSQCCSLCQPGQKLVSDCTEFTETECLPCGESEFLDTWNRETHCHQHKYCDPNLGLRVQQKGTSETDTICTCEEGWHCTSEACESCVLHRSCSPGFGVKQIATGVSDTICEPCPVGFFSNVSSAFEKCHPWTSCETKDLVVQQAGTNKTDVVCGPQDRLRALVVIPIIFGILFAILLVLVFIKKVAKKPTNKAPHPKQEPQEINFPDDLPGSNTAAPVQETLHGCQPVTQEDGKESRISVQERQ

| binding result | Binder |
| --- | --- |
| binds | B4 |
| binds | B5 |
| binds | B6 |
| binds | B7 |
| binds | B8 |
| binds | B9 |
| binds | B10 |
| binds | B11 |
| binds | B12 |
| binds | B13 |
| binds | B14 |
| binds | B15 |
| binds | B16 |
| no binding (tested: 300 nM) | B17 |
| binds | B18 |
| binds | B19 |
| binds | B20 |
| binds | B21 |
| binds | B22 |
| binds | B23 |
| binds | B24 |
| binds | B25 |
